According to the supplement of paper PMC12338614:
± gives the uncertainty stated by the source.

B1: library; numbered along this chain (parent)
chain: MEVVDPQQLGMFTEGELMSVGMDTFIHRIDSTEVIYQPRRKRAKLIGKYLMGDLLGEGSYGKVKEVLDSETLCRRAVKILKKKKLRRIPNGEANVKKEIQLLRRLRHKNVIQLVDVLYNEEKQKMYMVMEYCVCGMQEMLDSVPEKRFPVCQAHGYFCQLIDGLEYLHSQGIVHKDIKPGNLLLTTGGTLKISDLGVAEALHPFAADDTCRTSQGSPAFQPPEIANGLDTFSGFKVDIWSAGVTLYNITTGLYPFEGDNIYKLFENIGKGSYAIPGDCGPPLSDLLKGMLEYEPAKRFSIRQIRQHSWFRKKHPPAEAPVPIPPSPDTKDRWRSMTVVPYLEDLHGADEDEDLFDIEDDIIYTQDFTVPGQVPEEEASHNGQRRGLPKAVCMNGTEAAQLSTKSRAEGRAPNPARKACSASSKIRRLSACKQQ

Variants of: B1
Assay: STK11 functional score (HeLa growth suppression), rescaled enrichment; synonymous median = 1, nonsense median = 0 (normalised score)
Settings: with HeLa; variant type: missense
Procedure, shortened: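 In HeLa, Bxb1 integrated POPCode codon-randomised libraries of codon-optimised STK11 at an AAVS1 landing pad; three regions were each transfected three times. Integrants, marked as BFP-negative and mCherry-positive, were FACS-sorted 4–5 days after electroporation and expanded for about two weeks before tiled gDNA amplicons were sequenced on NextSeq (~2 million reads per tile). Each functional score is a post/pre-selection log ratio corrected to wild type, rescaled to the synonymous and nonsense medians, and merged across codons and replicate transfections, with error estimated by bootstrapping.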
L45R showed an STK11 functional score of 1.18 ± 0.29.
Work on R39M yielded an STK11 functional score of 1.58 ± 0.16.
With R39K the STK11 functional score was 0.866 ± 0.75.
With A410L the STK11 functional score was 1.42 ± 0.2.
Variant A410I has an STK11 functional score of 1.54 ± 0.22.
P89A gave an STK11 functional score of 1.1 ± 0.3.
With P89G the STK11 functional score was 0.213 ± 0.086.
E98K showed an STK11 functional score of 1.12 ± 0.67.
Work on D355C yielded an STK11 functional score of 1.31 ± 0.13.
K62S gave an STK11 functional score of 1.39 ± 0.32.
In the case of P321R, the STK11 functional score is reported as 1.26 ± 0.26.
R405G was tested, and the STK11 functional score was 1.48 ± 0.22.
For R405M, the STK11 functional score was 1.6 ± 0.2.
In the case of E375R, the STK11 functional score is reported as 1.46 ± 0.21.
Variant I300F has an STK11 functional score of 1.21 ± 0.35.
I300V showed an STK11 functional score of 1.13 ± 0.28.
For I300W, the STK11 functional score was 1.27 ± 0.09.
P387Y gave an STK11 functional score of 0.935 ± 0.43.
In the case of E70A, the STK11 functional score is reported as 1.43 ± 0.43.
Variant E70V has an STK11 functional score of 1.28 ± 0.39.
L167P was tested, and the STK11 functional score was 0.104 ± 0.11.
L167N was tested, and the STK11 functional score was 0.605 ± 0.12.
K311T was tested, and the STK11 functional score was 1.3 ± 0.18.
In the case of R103W, the STK11 functional score is reported as 0.732 ± 0.31.
I274Q gave an STK11 functional score of 1.62 ± 0.2.
I274A showed an STK11 functional score of 0.907 ± 0.16.
M51G gave an STK11 functional score of 1.1 ± 0.091.
For C391G, the STK11 functional score was 1.22 ± 0.32.
For F354W, the STK11 functional score was 0.138 ± 0.13.
Variant P149R has an STK11 functional score of 0.413 ± 0.2.
P149D gave an STK11 functional score of 0.598 ± 0.17.
With M289E the STK11 functional score was -0.103 ± 0.1.
For P369W, the STK11 functional score was 1.49 ± 0.22.
P369F showed an STK11 functional score of 1.26 ± 0.39.
G279S was tested, and the STK11 functional score was 1.25 ± 0.12.
Q399K gave an STK11 functional score of 0.826 ± 0.39.
Variant A218R has an STK11 functional score of 0.926 ± 0.14.
Variant A218I has an STK11 functional score of 0.926 ± 0.16.
Variant K78A has an STK11 functional score of -0.0486 ± 0.23.
K78W was tested, and the STK11 functional score was -0.148 ± 0.077.
For I303Y, the STK11 functional score was -0.337 ± 0.56.
For L190V, the STK11 functional score was 1 ± 0.28.
Work on L190W yielded an STK11 functional score of 0.118 ± 0.15.
Work on L190G yielded an STK11 functional score of 0.073 ± 0.17.
Work on A406L yielded an STK11 functional score of 1.57 ± 0.22.
With L164H the STK11 functional score was 0.0804 ± 0.11.
A398E gave an STK11 functional score of 1.55 ± 0.25.
Variant A398G has an STK11 functional score of 1.1 ± 0.38.
V66N was tested, and the STK11 functional score was 0.393 ± 0.24.
V66P was tested, and the STK11 functional score was 0.219 ± 0.12.
V66R gave an STK11 functional score of -0.0455 ± 0.097.
Work on P326V yielded an STK11 functional score of 0.813 ± 0.46.
In the case of V110C, the STK11 functional score is reported as 0.955 ± 0.44.
V128S showed an STK11 functional score of 0.466 ± 0.12.
Variant P314G has an STK11 functional score of 1.07 ± 0.47.
Variant S428I has an STK11 functional score of 1.62 ± 0.22.
S428C was tested, and the STK11 functional score was 1.4 ± 0.17.
Variant S428A has an STK11 functional score of 1.14 ± 0.54.
For S240D, the STK11 functional score was 0.841 ± 0.36.
R310P gave an STK11 functional score of 0.954 ± 0.3.
For N181V, the STK11 functional score was -0.181 ± 0.052.
In the case of N109Q, the STK11 functional score is reported as 0.886 ± 0.081.
Work on E342N yielded an STK11 functional score of 1.4 ± 0.14.
In the case of D30V, the STK11 functional score is reported as 0.22 ± 0.12.
In the case of S283P, the STK11 functional score is reported as 1.15 ± 0.37.
In the case of M125V, the STK11 functional score is reported as 0.78 ± 0.12.
In the case of N247H, the STK11 functional score is reported as 1.26 ± 0.26.
N247C was tested, and the STK11 functional score was 1.15 ± 0.4.
With A206L the STK11 functional score was 1.03 ± 0.21.
Variant E138C has an STK11 functional score of 0.386 ± 0.081.
E138K was tested, and the STK11 functional score was 1.59 ± 0.56.
In the case of E138D, the STK11 functional score is reported as 1.1 ± 0.21.
D53C gave an STK11 functional score of 1.1 ± 0.3.
For S307D, the STK11 functional score was 1.49 ± 0.16.
With I99G the STK11 functional score was 0.767 ± 0.3.
Q112P was tested, and the STK11 functional score was 1.24 ± 0.27.
Variant C73Y has an STK11 functional score of 0.412 ± 0.097.
With Y253C the STK11 functional score was 0.457 ± 0.26.
With A273H the STK11 functional score was 0.901 ± 0.3.
In the case of A273D, the STK11 functional score is reported as 0.919 ± 0.14.
Variant A273S has an STK11 functional score of 0.646 ± 0.15.
G346Q gave an STK11 functional score of 1.61 ± 0.14.
E349Q was tested, and the STK11 functional score was 1.16 ± 0.57.
With D115E the STK11 functional score was 1.27 ± 0.32.
L353R gave an STK11 functional score of 1.57 ± 0.17.
For L353N, the STK11 functional score was 1.56 ± 0.21.
For L427C, the STK11 functional score was 0.695 ± 0.25.
With L427R the STK11 functional score was 1.56 ± 0.2.
With M129C the STK11 functional score was 1.26 ± 0.13.
L183T showed an STK11 functional score of 1.1 ± 0.28.
With I360A the STK11 functional score was 1.6 ± 0.15.
G268D gave an STK11 functional score of 1.53 ± 0.19.
G268N gave an STK11 functional score of 1.03 ± 0.38.
G268H gave an STK11 functional score of 1.15 ± 0.61.
Variant Y118A has an STK11 functional score of 0.627 ± 0.21.
In the case of Q371V, the STK11 functional score is reported as 1.49 ± 0.2.
In the case of Q371L, the STK11 functional score is reported as 1.44 ± 0.17.
K431L was tested, and the STK11 functional score was 1.6 ± 0.23.
Work on N380A yielded an STK11 functional score of 1.51 ± 0.23.
I46T gave an STK11 functional score of 1.24 ± 0.27.
R425G gave an STK11 functional score of 1.55 ± 0.27.
F255T gave an STK11 functional score of 0.94 ± 0.13.
In the case of A389Q, the STK11 functional score is reported as 1.18 ± 0.17.
Work on A389L yielded an STK11 functional score of 1.54 ± 0.16.
With A389D the STK11 functional score was 1.2 ± 0.4.
H313C gave an STK11 functional score of 1.26 ± 0.29.
V4D gave an STK11 functional score of 1.45 ± 0.39.
For P323C, the STK11 functional score was 1.28 ± 0.5.
I361M was tested, and the STK11 functional score was 1.09 ± 0.39.
Variant T328L has an STK11 functional score of 1.03 ± 0.62.
For I88F, the STK11 functional score was 0.793 ± 0.079.
Work on R304A yielded an STK11 functional score of 1.49 ± 0.18.
With T186S the STK11 functional score was 1.1 ± 0.12.
With Q123W the STK11 functional score was 0.588 ± 0.23.
In the case of Q123F, the STK11 functional score is reported as 0.854 ± 0.079.
For S334W, the STK11 functional score was 0.649 ± 0.082.
For S334I, the STK11 functional score was 0.935 ± 0.59.
V320M showed an STK11 functional score of 1.47 ± 0.53.
Work on L344R yielded an STK11 functional score of 1.46 ± 0.25.
Variant N266P has an STK11 functional score of 1.09 ± 0.12.
For P179T, the STK11 functional score was 0.709 ± 0.13.
Work on A318M yielded an STK11 functional score of 0.577 ± 0.31.
R74H showed an STK11 functional score of 1.6 ± 0.47.
Work on I224T yielded an STK11 functional score of 0.252 ± 0.4.
G257E gave an STK11 functional score of 1.32 ± 0.47.
T230P was tested, and the STK11 functional score was 1.1 ± 0.17.
For K423R, the STK11 functional score was 1.17 ± 0.14.
K423D gave an STK11 functional score of 1.14 ± 0.6.
Variant L55W has an STK11 functional score of 0.491 ± 0.13.
Work on P294I yielded an STK11 functional score of 0.351 ± 0.081.
In the case of P294H, the STK11 functional score is reported as 0.973 ± 0.64.
Variant G21A has an STK11 functional score of 1.39 ± 0.38.
Work on Y362R yielded an STK11 functional score of 1.39 ± 0.15.
Variant M335D has an STK11 functional score of 0.605 ± 0.14.
In the case of V173H, the STK11 functional score is reported as 0.45 ± 0.086.
N259S was tested, and the STK11 functional score was 1.34 ± 0.38.
P222T showed an STK11 functional score of 0.499 ± 0.25.
P222V was tested, and the STK11 functional score was 0.826 ± 0.12.
For G381A, the STK11 functional score was 1.09 ± 0.4.
Variant V95W has an STK11 functional score of 0.452 ± 0.08.
M22V gave an STK11 functional score of 1.13 ± 0.69.
Variant M392G has an STK11 functional score of 1.43 ± 0.22.
T363L gave an STK11 functional score of 1.17 ± 0.15.
For T363M, the STK11 functional score was 1.59 ± 0.17.
T363C was tested, and the STK11 functional score was 1.33 ± 0.48.
With T363G the STK11 functional score was 1.58 ± 0.24.
G15E gave an STK11 functional score of 1.68 ± 0.46.
In the case of K83V, the STK11 functional score is reported as 1.05 ± 0.48.
In the case of K83L, the STK11 functional score is reported as 0.484 ± 0.22.
In the case of T336S, the STK11 functional score is reported as 1 ± 0.49.
For A316R, the STK11 functional score was 0.901 ± 0.098.
Variant A316Q has an STK11 functional score of 1.53 ± 0.15.
C210W showed an STK11 functional score of 0.601 ± 0.2.
K41G showed an STK11 functional score of 1.25 ± 0.13.
For K41R, the STK11 functional score was 1.6 ± 0.33.
With T13G the STK11 functional score was 0.27 ± 0.17.
T13K gave an STK11 functional score of 0.0631 ± 0.2.
H306I was tested, and the STK11 functional score was 0.83 ± 0.16.
C278R gave an STK11 functional score of 1.51 ± 0.28.
Work on C278H yielded an STK11 functional score of 1.06 ± 0.35.
In the case of C278A, the STK11 functional score is reported as 1.29 ± 0.29.
K84S was tested, and the STK11 functional score was 1.71 ± 0.19.
In the case of V337A, the STK11 functional score is reported as 1.24 ± 0.17.
Work on Q364P yielded an STK11 functional score of 1.4 ± 0.27.
Work on Q364F yielded an STK11 functional score of 1.28 ± 0.27.
Work on V116C yielded an STK11 functional score of 0.415 ± 0.14.
Variant Q305F has an STK11 functional score of 1.51 ± 0.2.
